Reference: patent publication US9370316B2, “MRI estimation of contrast agent concentration using a neural network approach” (HENRY FORD HEALTH SYSTEM, priority 2007, dated 2016)

Assay: MRI (TOMROP) after injection of Gd-BSA in 9 L rat model of cerebral gliosarcoma
Assay type: in vivo, Fisher 344 rats
Conditions: rats with 9 L cerebral tumor
From the text: Given a “gold-standard” map of CA concentration, an ANN is trainable to directly estimate CA concentration from MRI image sets in which the time-varying behavior of the images depends, albeit nonlinearly, on CA concentration. Some of our studies using TOMROP (“T One by Multiple Read Out Pulses”) image sets as inputs in a set of tubular gel phantoms are supportive. In accordance with some embodiments, without limitation, an ANN for estimating CA concentration in the brain tissue of 9 male Fisher rats, using as inputs TOMROP signal changes after injection of Gd-BSA in a 9 L rat model of cerebral gliosarcoma (Ewing et al. 2006), was designed, trained, optimized, and tested. The MRI experiment was followed by quantitative autoradiography (“QAR”) using radioiodinated serum albumin (“RISA”), thus essentially replicating the MRI as to its timing, procedures, and indicator. The autoradiogram of the QAR procedure served as the training set.
Animal Studies: As part of our studies to compare MRI estimates of transfer constant to QAR estimates (results not included here), nine animals (Fisher 344 rats) with 9 L tumor (Ewing et al. 2006) were studied. Mean tumor age was 14.6±0.7 days (range 14 to 16 days) for all animals. […]

Substance: Gadolinium-labeled Bovine Serum Albumin [Gd-BSA]
- Extravasation of Gd-BSA: occurred within the tumors and at tumor borders in all animals
